The values below come from the nanobody polyreactivity screen of Harvey et al. (2022).

The series is described as follows: yeast display, Sf9 membrane polyspecificity reagent, FACS + sequencing; frameworks hold sequencing errors. In short, it runs like this:
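Genes from sorted yeast were amplified by colony PCR, read by MiSeq 2 × 250 sequencing and filtered on CDR length. These cells carried a synthetic nanobody library in Saccharomyces cerevisiae BJ5465 and were sorted by FACS into low and high (top ~1%) gates on anti-HA and streptavidin fluorescence. Polyreactivity is labelled according to the gate of origin.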
In the case of “QVQLVESGGGLVQAGGSLRLSCAASGSTFVPNAMGWYRQAPGKERELVAAISRSAGSTYYADSVKGRFTISRDNAKNTVYLQMNSLKPEDTAVYYCAAVSLTYIAYDYWGQGTQVTVSS”, the “polyreactivity (PSR sort gate)” value is reported as “high polyreactivity”.

For “QVQLVESGGGLVQAGGSLRLSCAASGITFKVYAMGWYRQAPRKEREFVAAITYSGGRTYYADSVKGRFTISRDNAKNTVYLQMNSLQPEDTAVYYCAKEYGIYTDTPYYYWGQGTQVTVSS”, the “polyreactivity (PSR sort gate)” value is given as “low polyreactivity”.

On to “QVQLVESGGGLVQAGGTLRLSCAPSGRIFKTYAMGWYRQAPGKERELVAAITNNGGSTYYADSVKGRFTISRDNAKNTVYLLMNSLKPEDTAVYYCAVYVKYHYPVVTTGYDYWGQGTQVTVSS”, for which the “polyreactivity (PSR sort gate)” value is listed as “high polyreactivity”.

In the case of “QVQLVESGGCLVQAGVSLRLSCAASGRIFAYYAMGWYRQAPRKERELVAAISRSGVSTYYADSVKGRFTISRDNAKNTVYIQMNSLKPEDTAVYYCAARWRSGFTSGDYWGQGTQVTVSS”, the “polyreactivity (PSR sort gate)” value is “low polyreactivity”.

Take “QVQLVESGGGLVQAGGSLRLSCAASGSTFSSYGMGWYRQAPGKERELVAAISKRGGSTYYADSVKGRFTISRDNAKNTVYLQMNSLKPEDTAVYYCAAAVRKQGYSTLFDYWGQGTQVTVSS”: the “polyreactivity (PSR sort gate)” value was “high polyreactivity”.

Regarding “QVKLVESGGGLVQAGGSLRLSCAASGGTFGSNAMGWYRQAPGKERHLVAAISTTGGTTYYADSVKGRFTISRDNAKNTVYLQMNSLKPEDTAVYYCAKDGYVYGDWYTYAYDYWGQGTQVTVSS”, the “polyreactivity (PSR sort gate)” value is reported as “low polyreactivity”.

With “QVQHVESRGGLVQSGGSLRLSCAASGSIFSYYDLGWYRQAPGKERELVASISSGGSTYYADSVKGRFTISRDNAKNTVYLQMNSLKPEDTAVYYCAAVSRWLYWEDDYWGQGTQVTVSS”, the “polyreactivity (PSR sort gate)” value is “low polyreactivity”.

In the case of “QVHLVESGGGLVQAGGSLRLSCSASGSIFAINVMGWYRQAPGKEREFVAAITWSGGSTYYADSVKGRVTISRDNAKNTVYLQMFSLKPEDTAVYYCNARYPYKRRDYDYWGQGTQVTVSS”, the “polyreactivity (PSR sort gate)” value was “high polyreactivity”.

Take “QVQLVESGGGLVQAGGSLRLSCAASGRIFNVNALGWYRQAPGKERELVAAINWSGGRTYYADSVKGRFTISRDNAKNTVYLQLNSLKPEDTAVYYCAADTRYPYRAYDYWGQGTQVTVAS”: the “polyreactivity (PSR sort gate)” value is listed as “high polyreactivity”.

“QVQLVESGGGLVQAGGSLRLSCAASGNTLTYNVMGWYRQAPGKERELVAAISGRGGRTYYADSVKGRFTISRDNAKNTVYLQMNCLKPEDTAVYYCAAKSRNGESGGFDYWGQATQVTVSS”: the “polyreactivity (PSR sort gate)” value is recorded as “high polyreactivity”.

As to “QVQLVESGGGLVQAGGSLRLSCAASGRTFASYAMGWYRQAPGKERDFVASISRRGGSTNYADSVKGRFTISRDNAKNTVYLQMNSLIPEDNAVYYCAKRFTLPLSEYDYWGQGTQVTVSS”, the “polyreactivity (PSR sort gate)” value is recorded as “high polyreactivity”.

Take “QVQLVESGGGLVQAGGSLRLTCAASRLTFDDNAMGWYRQAPGKERELVAAISYNGGSTYYADSVKGRFTISRDNAKNTVYLQMNSLKPEDTAVYYCAADISVGRYGDMDYWGQGTQVTVSS”: the “polyreactivity (PSR sort gate)” value is “low polyreactivity”.

“QVQLVESGGGLDQAGGSLRLSCAASGSTFNSYAMGWYRQAPGKERELVAAITSSVGSTYYADSVKGRFTISRDNAKNTVYLQMNSLKPEDTAVYYCAADYFSYWYFSGYDYWGQGTQVTVSS”: the “polyreactivity (PSR sort gate)” value was “low polyreactivity”.

For “QVQLVESGGGLVQAGGSLRLSCAASGIIFYRNTMGWYRQAPGKERELVAAITSGGTTYADSVKGRFTISRDNAKNTVYLQMNSLKPEDTAVYYCATDYWYRGFEYEYWGQGTQVTVSS”, the “polyreactivity (PSR sort gate)” value was “high polyreactivity”.

For the sequence “QVQLVESGGGLVQAGGSLRLSCAASGSIFDHTNAMGWYRQAPGKERELVAAITSGSSTNYADSVKGRFTISRDNAKNTVYLQMNSLKPEDTAVYYCNADRFHSGIFDYWGQGTQVTVSS”, the “polyreactivity (PSR sort gate)” value is “low polyreactivity”.

Regarding “QVQLVESGGGLVQAGGSLRLSCAASGSIFSINARGWYRQAPGKERELVAAITYSTGSTYYADSVKGRFTISRDNAKNTVYLQMNSLKPEDTAVYYCAAVYKRTYLHSQTYGYYYWGQGTQVTVSS”, the “polyreactivity (PSR sort gate)” value is listed as “high polyreactivity”.

As to “QVQLVESGGGLVQAGGSLRLSCAASGRTFSYYTMGWYRQAPGKERELVARISNRGTNTYYADSVKGRFTISRDNAKNTVYLQMNSLKPEDTAVYYCAATQPYWWAYRYDYWGQGTQVTVSS”, the “polyreactivity (PSR sort gate)” value is reported as “low polyreactivity”.

In the case of “QVQLVESGGGLVQAGGSLRLSCAASGFIFWTYAMGWYRQAPGKERELVARISWSGGSTYYADSVKGRFTISRDNAKNTVYLQMNSLKPEDTAVYYCARLATLYESIEYDYWGHGTQVTVSS”, the “polyreactivity (PSR sort gate)” value was “low polyreactivity”.

As for “QVQLVESGGGLVQAGGSLRLSCAASGFTFGSNTMGWYRQAPGKERELVAAITTSGDSTYYADSVKGRFTISRDTAKNTVYLQMNSLKPEDTAVYYCAAERRYGRYYRLVRLLGQGTQVTVSS”, the “polyreactivity (PSR sort gate)” value was “high polyreactivity”.

“QHQIVESGGGLVQAGGSLRLSCAASGSTIYRYAMGWYRQAPGKERELVAAISSSGGSTYYADSVKGRFTISRDNAKNTVYLQMNSLKPEDTAVYYCNAADRVRRFDYWGQGTQVTVSS”: the “polyreactivity (PSR sort gate)” value was “low polyreactivity”.

As to “QVQLVESGGGLVQAGGSLLLSCAASGRIFRSYTMGWYRQAPGKERELVAAITSYGGRTYYADSVKGRFTISRDNAKNTVYLQMNRLKPEDTAVYYCAAHLSRDKFDYWGQGTQVTVSS”, the “polyreactivity (PSR sort gate)” value is given as “low polyreactivity”.

For the sequence “QVQLVESGGGLVQAGGSLRLSCAASGFIFRWYAMGWYRQAPGKERELVAAISSSSGSTYYADSVKGRFTISRDNAKNTVYLQMNSLKPEDTAVYYCAAESNRRFEGEYWGQGTQVTVSS”, the “polyreactivity (PSR sort gate)” value was “high polyreactivity”.

Take “QVQLVESGGGLVQAGGSLRLRCAASGSIFVVNAMGWYRPAPGKERELVAAISWSDTTTYYADSVKARFTISRDNAKNTVYLQMNSLKPEDTAVYYCAAGFVIKYDYWGQGTQVTVSS”: the “polyreactivity (PSR sort gate)” value is “low polyreactivity”.

For the sequence “QVQLVESGGGLVQAGGSLRLSCAASGSTFVGNAMGWYRQAPGKERELVAAISRTGGSTYYADSVKGRFTISRDNAKNTVYLQMNSLKPEDTAVYYCNAYTRYSSRRGIGDYWGQGTQVTVSS”, the “polyreactivity (PSR sort gate)” value is reported as “high polyreactivity”.

Regarding “QVQLVESGGGLVHAGGSLRLSCAASGFTFRSYAMGWYRQAPGKERELVAAISWSGGSTYYADSVKGRYTISRDNAKNTVYLQMNSLKPEDTAVYYCAAVRVSKYDYWGQGTQVTVSS”, the “polyreactivity (PSR sort gate)” value was “high polyreactivity”.

In the case of “QVQLVESGGGLVQAGGSLRLSCAASGRIFGNYAMGWYRQAPGKERELVAAISNGSGRTSYADSVKGRFTISRDNAKNTVYLQMNSLKPEDTAVYYCAVLRPKSRKHTVGFCYWGQGTQVTVSS”, the “polyreactivity (PSR sort gate)” value is “high polyreactivity”.

For “QVQLQESGGGLVQAGGSLRLSCAASGNIVDADIMGWYRQEPGKERELVASITDGGSTNYADSVKGRFTISRDNAKNTVYLQMNSLKPEDTAVYYCAAIAYPDIPTYFDYDSEYFYWGQGTQVTVSS”, the “polyreactivity (PSR sort gate)” value was “low polyreactivity”.

In the case of “QLQLVESVGGVVQPGGSLRLSSAASGSNFRYYAIGWYRQAPGKERELVAAINWSGGSTYYADSVKGRVTISRDNAKNTVYLQMNSLKPEDTAVYYWAASWYYCRRYDYWGQGTQVTVSS”, the “polyreactivity (PSR sort gate)” value is “high polyreactivity”.

With “QVQLVESGGGLVQAGGSLRLTCAASGRTFRIYAMGWYRQAPAKERELVAAIRWSGGTTYYADSVKGRFTISRDNTNNSVYLQMNSLKPEDTAVYYCNKARLGWSYRQDDYWGQGTQVTVSS”, the “polyreactivity (PSR sort gate)” value is given as “high polyreactivity”.

In the case of “QVQLVESGGGLVQAGGSLRLSCAASGRIFKTYAMGWYRQAPGKEREVVAAITAAGGRTYYADSVKGRFTISRDNAKNTVYLQMNSLKPEDTAVYYCAADSGNDYDYWGQGTQVTVSS”, the “polyreactivity (PSR sort gate)” value is given as “low polyreactivity”.

As for “QVQLVESGGGLVQAGGSLRLTCAASGIIYYVYAMVWYRQAPGKERELVAAITSGGTTYYADSVKGRFTISRDNAKNTVYLQMNSLKPEDTAVYYCAAARGGGRTYGYWGQGTQVTVSS”, the “polyreactivity (PSR sort gate)” value is “high polyreactivity”.

On to “QVQLVESGGGLVQAGGSLRLSCAASGSTFANNDMGWYRQAPGIEREMVADIRSGGNTNYADSVKGRFTISRDNAKNTVVLQMHSVKPEDTAVYYCATDGYRIDVYQPDYRYDYWGQGTQVTVSS”, for which the “polyreactivity (PSR sort gate)” value is “low polyreactivity”.

As for “QVQLVESGGGLVQAGGSLRLSCAASGRTFWSNDMGWYRQAPGKEREFVAVISRSGSTTYYADSVKGRFTISRDNAKNTVYLQMNSRKPEDTAVYYCAADRVRSYFSRYYSTPLDYYLGQGTQVTVSS”, the “polyreactivity (PSR sort gate)” value is on record as “high polyreactivity”.

For the sequence “QVQLVESGGGLVQAGGSLRLSCAASGIIFSWYAMGWYRQAPGKERELVATISGGGGSTYYADSVKGRFTISRDNAKNTVYLQMNSLKPEDTAVYYCAADYWNFNWRYKLYRPYDYWGQGTQVTVSS”, the “polyreactivity (PSR sort gate)” value was “high polyreactivity”.

Regarding “QVHLVESGGGLVQAGGSLRLSCAASGSIFSWYAMGWYRQAPGKEWELVAAITWSGGSTYYADSVKGRFTISRDTAKNTVYLQMNSLKPEDTAVYYCAASYDIYGNYRRYDYWGQGTQVTVSS”, the “polyreactivity (PSR sort gate)” value is “high polyreactivity”.

Turning to “QVQLVESGGGLVQAGGSLRLSCAASGSTFWGYAMGWSRPAPGKERELVATITTGGGGTYYADSVKGRFTISRDNAKNTVYLQMNSLKPEDTAVYYCAARLRDGRTPRTEYDYWGQGTQVTVSS”, the “polyreactivity (PSR sort gate)” value is “low polyreactivity”.

Take “QVQLVESGVGLVQAGGSLSLSCAASGPYYFMGWYRQAPGKESELVAAITRRGGRTYYADSVKGRFTISRDNANITVYLQMNSLKPEDTAVYYCAAKYRYHVSGYDYWGQGTQVTVSS”: the “polyreactivity (PSR sort gate)” value is on record as “high polyreactivity”.

With “QVHLVESGGGLVQAGGSLRLSCAASGSTFAKNAMGWYRQAPGKERELVAAITRSAGSTYYADSVKGRFTISRDNAKNTVYLQMNSLKPEDTAVYYCDRRVSGTPWYGYWGQGTQVTVSS”, the “polyreactivity (PSR sort gate)” value was “high polyreactivity”.

As to “QVQLVESGGGLVQAGGSLRLSCAASGRIFGLYTMGWYRQAPGKERELVAAITSRGGRTYYADSVKGRFTLSRDNAKNSVYLQMNSLKPEDTAVYYCAAGGYWSLKYDYWGQGTQVTVSS”, the “polyreactivity (PSR sort gate)” value is “high polyreactivity”.

With “QGQLVESGGGLVQAGGSLRLSCAASGRIFRGYAMGWYRQGPGNEREWVAAFSRRGGSTYYADSVKGRFTISRDNAKNTVYLQMNSLKPVDTAVYYCNADGVHYVAYAGGYWGQGTQVTVSS”, the “polyreactivity (PSR sort gate)” value is reported as “high polyreactivity”.

On to “QDQLVESGGRLVQAGGSLRLSCAASGRTVYYYTMGWYRQAPGKEREFVAGIRYSGSSTYYADSVKGRFTISRDTAKNTVSFQMNSLKPEATAVYYCAASLWRWRFSRFGYWGQGTQVTVSS”, for which the “polyreactivity (PSR sort gate)” value was “high polyreactivity”.
